What was measured:
[1] = Substrate specificity of NLpoly 5P and 11S with NLpep79 (Example 97); format: biochemical
Protocol: E. coli clarified lysates were prepared for NLpoly 5P or 11S as described previously. The NLpoly lysates were then serially diluted in steps of 10-fold into PBS+0.1% Prionex.

[2] = tested on: wt Oplophorus 157-169 peptide; assay: Relative specific activity in HEK293T lysates (Example 143); format: biochemical; details: averages of Vmax and Bmax normalized to NanoLuc
Protocol: Each clone was inserted into pFN21A HaloTag® CMV Flexi® Vector (Promega G2821), and lysates were prepared as follows: 3 ml HEK293T cells that have been diluted to a concentration of 200,000 cells/ml (600,000 cells total) were plated into each well of a 6-well plate and grown overnight at 37° C. in a CO2 incubator. The following day transfection complexes of each DNA were prepared by combining […] of DNA, Opti-MEM® (Life Technologies 11058-021) to a final volume of 310 μl and 20 μl of FuGENE® HD (Promega E231a). The transfection complexes were incubated for 20 minutes and then 150 μl of each complex added in duplicate to cells. The cells were grown overnight 37° C. in a CO2 incubator. The following day, the cells were washed cells with DPBS (Life Technologies 14190-144), and 1 ml fresh DPBS added. Cells were frozen to lyse and then thawed for testing. Duplicate transfection reactions lysates were combined.
In order to compare the specific activities of Nluc (full length enzyme) to wt Oplophorusl-156 and NLpoly11S in combination with wt Oplophorus 157-169 peptide (binary proteins), substrate titrations were run for all of the samples, but for the binary samples substrate titrations were run at multiple peptide concentrations. Using this format, it was possible to calculate a Vmax value for Nluc and both Vmax and Bmax values for NLpoly11S and wt Oplophorus 1-156. Three separate experiments were run using this format and Vmax and Bmax values were normalized to the Vmax of NanoLuc. Relative specific activities (calculated as averages of Vmax and Bmax) are normalized to NanoLuc.

[3] = Luminescence of NLpoly without NLpep, E. coli clarified lysate (Example 57); format: biochemical; details: E. coli clarified lysate + NanoGlo+Fz
Protocol: 50 μL of each lysate and 50 uL NanoGlo+Fz were mixed and incubated for 5 min RT. Luminescence was measured on GloMax® Multi+ with 0.5 sec integration.

NLpep78-HT or NLpep79-HT = assay: Luminescence of NLpoly variants without NLpep or with NLpep78-HT / NLpep79-HT (Example 93); format: biochemical; details: E. coli expression culture
[…] peptide [4] = target: T1, […] peptide (Oplophorus gracilirostris, UniProt Q9GV45); assay: Non-luminescent polypeptide mutant luminescence after complementation with peptide (Example 5, Table 4); details: E. coli culture of polypeptide mutant + 1x peptide solution; NANOGLO reagent
[…] peptide [5] = target: T1, […] peptide; assay: as above; details: E. coli culture of polypeptide mutant + 1x peptide solution; NANOGLO reagent; remark: listed apart in the source

B1: 11S: evolved non-luminescent polypeptide variant 11S (12S-51) (protein)
chain: MVFTLEDFVGDWEQTAAYNLDQVLEQGGVSSLLQNLAVSVTPIQRIVRSGENALKIDIHVIIPYEGLSADQMAQIEEVFKVVYPVDDHHFKVILPYGTLVIDGVTPNMLNYFGRPYEGIAVFDGKKITVTGTLWNGNKIIDERLITPDGSMLFRVTINS
[1]
  Substrate specificity for furimazine: superior specificity for furimazine than 5P
[2]
  Relative specific activity (*with wt 157-169 peptide): 0.18*
[3]
  Luminescence in the absence of NLpep, higher than WT NLpoly: ~500 fold
NLpep78-HT or NLpep79-HT
  Luminescence without NLpep or with NLpep78 or NLpep79: improved luminescence over the other variants

B2: L149M (protein)
chain: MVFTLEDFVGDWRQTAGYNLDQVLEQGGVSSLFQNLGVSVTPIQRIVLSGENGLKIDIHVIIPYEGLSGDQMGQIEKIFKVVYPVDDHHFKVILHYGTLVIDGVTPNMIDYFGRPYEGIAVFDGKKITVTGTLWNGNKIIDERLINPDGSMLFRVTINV
[…] peptide [4]
  Luminescence with […]: 2.16 RLU(mutant)/RLU(WT)
[…] peptide [5]
  Luminescence with […]: 2.89 RLU(mutant)/RLU(WT)

Reference: patent US12366572B2, “Activation of bioluminescence by structural complementation” (Promega Corporation, priority 2013, dated 2025)
